Experimental data as given in article PMC3516566, “Identification of an Acinetobacter baumannii Zinc Acquisition System that Facilitates Resistance to Calprotectin-mediated Zinc Sequestration”.

Biological target: T1, Zur (Acinetobacter baumannii ATCC 17978, UniProt V5VHH0 1-161)
T1 sequence: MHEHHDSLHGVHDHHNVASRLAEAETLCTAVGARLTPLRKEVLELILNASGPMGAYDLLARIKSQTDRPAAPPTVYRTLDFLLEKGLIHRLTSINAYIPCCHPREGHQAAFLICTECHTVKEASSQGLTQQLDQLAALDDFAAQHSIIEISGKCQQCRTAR
Test: EMSA; 100 uM ZnCl2; Zur 0-2500 nM, DNA 250 nM; 20 mM Tris-HCl pH 8.0, 50 mM KCl, 1 mM DTT, 5% glycerol, 100 uM ZnCl2, 20 min at room temperature; 4% polyacrylamide gel
Settings: protein: recombinant; tags: N-terminal 6xHis (pET15b), removed by thrombin; chain copies: 2; label: none (SYBR green stain); blunt

B1: znuA intragenic negative control (dsDNA)
DNA 1: GTTACAAAAATACCTAAGATTAATCGAAT
DNA 2: ATTCGATTAATCTTAGGTATTTTTGTAAC
binding result: no binding
